Data on 28 sequences can be found in the supplement of paper PMC10724198.

The test system of this data set is Saccharomyces cerevisiae. The data set is described as follows: protein stability index of tFT-peptide fusion (C-terminal peptide) (PSI (0-1 scale)); higher = more stable (slower turnover). The following applies: temperature: 30 C. The method, then:
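MPS profiling in S. cerevisiae of the yeast C-terminome library: the last 12 aa of each annotated ORF are fused to the C-terminus of a sfGFP-mCherry timer, after a GGGS linker. Cells are FACS-sorted into 8 mCherry/sfGFP bins and deep-sequenced. PSI runs from 0 (unstable) to 1 (stable); wild type and das1Δ backgrounds, two technical replicates each.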

[1] abbreviates: genetic background: das1 deletion.

± gives the standard deviation of the averaged measurements.

TYFSFHILFHNL [YOR309C C-terminal 12 aa]: the protein stability index runs as follows: under setting [1], 0.614 ± 0.0097; (genetic background: wild type) 0.221 ± 0.013.
The corresponding values for TYQLIEKNRNSK [BLS1 C-terminal 12 aa] are 0.692 ± 0.019 and 0.678 ± 0.01.
In the same order, the values of VAAGVFIEHDEL [YOS9 C-terminal 12 aa] are 0.723 ± 0.0098 and 0.702 ± 0.013.
In the same order, the values of VASSTEQLLQEM [DYN1 C-terminal 12 aa] are 0.67372 ± 0.00052 and 0.693 ± 0.029.
With VATADIKNEDKN [BNA2 C-terminal 12 aa], the protein stability index runs as follows: under setting [1], 0.671 ± 0.021; (genetic background: wild type) 0.731 ± 0.066.
In the same order, the values of VDAKIKKQMNRH [YJR124C C-terminal 12 aa] are 0.694 ± 0.011 and 0.682 ± 0.0093.
Take VDYKTEPLQPLI [RGI2 C-terminal 12 aa]: the protein stability index by setting is: under setting [1], 0.7 ± 0.022; (genetic background: wild type) 0.678 ± 0.0079.
Consider VEGKNAAASGSA [LEU4 C-terminal 12 aa], for which the protein stability index by setting is: under setting [1], 0.7086 ± 0.0054; (genetic background: wild type) 0.682 ± 0.013.
VEKDLVSVGSTW [NAR1 C-terminal 12 aa]: the protein stability index under setting [1] came to 0.676 ± 0.0024 and the protein stability index (genetic background: wild type) came out at 0.7073 ± 0.0067.
In the same order, the values of VEKVKKFVEENN [YML108W C-terminal 12 aa] are 0.678 ± 0.007 and 0.651 ± 0.069.
Take VELYENQSHMQN [CDC9 C-terminal 12 aa]: the protein stability index by setting is: under setting [1], 0.701 ± 0.01; (genetic background: wild type) 0.678 ± 0.074.
The corresponding values for VEVLENLQSVLK [ATP16 C-terminal 12 aa] are 0.68 ± 0.013 and 0.7134 ± 0.0029.
The corresponding values for VGGIDYIKEFLS [CDA2 C-terminal 12 aa] are 0.7012 ± 0.0019 and 0.264 ± 0.0041.
The corresponding values for VGLLTAIIMSIM [PST1 C-terminal 12 aa] are 0.576 ± 0.011 and 0.529 ± 0.021.
Consider VGVERLLNDRFR [ARP4 C-terminal 12 aa], for which the protein stability index amounted to 0.6944 ± 0.0026 under setting [1] and 0.695 ± 0.028 (genetic background: wild type).
In the same order, the values of VKKSNWSNYFKS [PCL2 C-terminal 12 aa] are 0.6868 ± 0.0023 and 0.682 ± 0.033.
As to “VKKYSMKKKKKR [YDR320W-B C-terminal 12 aa]”, the protein stability index by setting is: under setting [1], 0.671 ± 0.014; (genetic background: wild type) 0.62 ± 0.0065.
The corresponding values for VKNWSKSILGFN [MSC1 C-terminal 12 aa] are 0.7095 ± 0.004 and 0.666 ± 0.021.
In the same order, the values of VLGDCQHVTSLL [HST4 C-terminal 12 aa] are 0.697 ± 0.015 and 0.7204 ± 0.0067.
In the same order, the values of VLREEVKKEEEN [KRS1 C-terminal 12 aa] are 0.6913 ± 0.006 and 0.7 ± 0.025.
With VLVFSWRHIFCF [YJL120W C-terminal 12 aa], the protein stability index came out at 0.467 ± 0.026 under setting [1] and 0.179 ± 0.0033 (genetic background: wild type).
In the case of VNLDVTEDDKQK [STE20 C-terminal 12 aa], the protein stability index runs as follows: under setting [1], 0.6857 ± 0.0021; (genetic background: wild type) 0.67 ± 0.04.
In the same order, the values of VNPKAKRPSNEK [NOP2 C-terminal 12 aa] are 0.712 ± 0.044 and 0.754 ± 0.042.
In the same order, the values of VNRQLEMDLPIE [YKL066W C-terminal 12 aa] are 0.7074 ± 0.0056 and 0.712 ± 0.042.
The corresponding values for VPLGPKPDISRL [GTO1 C-terminal 12 aa] are 0.7047 ± 0.0045 and 0.712 ± 0.041.
On to VPNDNNEQRSSQ [SAN1 C-terminal 12 aa], for which the protein stability index amounted to 0.7041 ± 0.0064 under setting [1] and 0.662 ± 0.011 (genetic background: wild type).
In the same order, the values of VPRFKDIFDDLS [DOA1 C-terminal 12 aa] are 0.7313 ± 0.0058 and 0.719 ± 0.0078.
In the same order, the values of “VQCVCFNVEMRL [YIL046W-A C-terminal 12 aa]” are 0.662 ± 0.015 and 0.676 ± 0.091.
